Measured values reported in paper doi:10.1101/2023.10.13.562012.

How the values were obtained:
Experiment in all cases: cryo-EM structure
[1] = biological target: tonoplast intrinsic protein TIP1;1 (spinach (endogenous in leaves))
[2] = biological target: tonoplast intrinsic protein TIP2;1 (spinach (endogenous in leaves))
[3] = biological target: chloroplast carbonic anhydrase (CA) (spinach (endogenous in leaves))
[4] = biological target: Rubisco (spinach (endogenous in leaves))
[5] = biological target: LHC-II complex (spinach (endogenous in leaves))

## tonoplast intrinsic protein TIP1;1 (natural protein)
[1]
  stoichiometry N: 4
[2]
  stoichiometry N: 3

## chloroplast carbonic anhydrase (CA) (enzyme)
[3]
  stoichiometry N: 8

## Rubisco (complex)
[4]
  stoichiometry N: 8

## LHC-II complex (natural protein)
[5]
  stoichiometry N: 3
